Measured values reported in publication PMC11952830.
Numbering of substitutions follows the chain as printed. One block for each binder: values may come before it.

Molecular target: actin (rabbit muscle), P68135
Test: fluorescence anisotropy
Conditions: chain shown with the change, actin filaments titrated 0-12 µM

- Kd (20 nM TMR-labeled KLP-AAA Cdc42EP3 (TMR at C211) held fixed): 3.4 µM
B1: Cdc42EP3 labeled with tetramethylrhodamine (TMR) at C211, Q9UKI2 KLP->AAA (protein)
chain: MPAKTPIYLKAANNKKGKKFKLRDILSPDMISPPLGDFRHTIHIGKEGQHDVFGDISFLQGNYELLPGNQEKAHLGQFPGHNEFFRANSTSDSVFTETPSPVLKNAISLPTIGGSQALMLPLLSPVTFNSKQESFGPAAAARLSAEPVMEEKAQEKSSLLENGTVHQGDTSWGSSGSASQSSQGRDSHSSSLSEQYPDWPAEDMFDHPTPCELIKGKTKSEESLSDLTGSLLSLQLDLGPSLLDEVLNVMDKNK

- Kd (20 nM TMR-labeled IS-AA Cdc42EP3 (TMR at C211) held fixed): 2.8 µM
B2: Cdc42EP3 labeled with tetramethylrhodamine (TMR) at C211, Q9UKI2 IS->AA (protein)
chain: B1 chain with I31A, S32A, A139K, A140L, A141P
